Among the data in paper PMC5533585 are percent of the tagged subunit incorporated into the complex values, retold here.

The target in the experiment is cytoplasmic dynein-1 heavy chain (human (endogenous in HEK-293)) (UniProt Q14204). Briefly: co-IP + SEC; FLAG immunoprecipitate (GF buffer: 50 mM Tris-HCl pH 8.0, 150 mM NaCl, glycerol, 0.2% Triton X-100) run on Superose 6 Increase 10/300 GL; fractions blotted with anti-FLAG, anti-HC, anti-p150; percent = intensity incorporated/(free + incorporated).
UniProt Q14204, sequence (Q14204 whole entry): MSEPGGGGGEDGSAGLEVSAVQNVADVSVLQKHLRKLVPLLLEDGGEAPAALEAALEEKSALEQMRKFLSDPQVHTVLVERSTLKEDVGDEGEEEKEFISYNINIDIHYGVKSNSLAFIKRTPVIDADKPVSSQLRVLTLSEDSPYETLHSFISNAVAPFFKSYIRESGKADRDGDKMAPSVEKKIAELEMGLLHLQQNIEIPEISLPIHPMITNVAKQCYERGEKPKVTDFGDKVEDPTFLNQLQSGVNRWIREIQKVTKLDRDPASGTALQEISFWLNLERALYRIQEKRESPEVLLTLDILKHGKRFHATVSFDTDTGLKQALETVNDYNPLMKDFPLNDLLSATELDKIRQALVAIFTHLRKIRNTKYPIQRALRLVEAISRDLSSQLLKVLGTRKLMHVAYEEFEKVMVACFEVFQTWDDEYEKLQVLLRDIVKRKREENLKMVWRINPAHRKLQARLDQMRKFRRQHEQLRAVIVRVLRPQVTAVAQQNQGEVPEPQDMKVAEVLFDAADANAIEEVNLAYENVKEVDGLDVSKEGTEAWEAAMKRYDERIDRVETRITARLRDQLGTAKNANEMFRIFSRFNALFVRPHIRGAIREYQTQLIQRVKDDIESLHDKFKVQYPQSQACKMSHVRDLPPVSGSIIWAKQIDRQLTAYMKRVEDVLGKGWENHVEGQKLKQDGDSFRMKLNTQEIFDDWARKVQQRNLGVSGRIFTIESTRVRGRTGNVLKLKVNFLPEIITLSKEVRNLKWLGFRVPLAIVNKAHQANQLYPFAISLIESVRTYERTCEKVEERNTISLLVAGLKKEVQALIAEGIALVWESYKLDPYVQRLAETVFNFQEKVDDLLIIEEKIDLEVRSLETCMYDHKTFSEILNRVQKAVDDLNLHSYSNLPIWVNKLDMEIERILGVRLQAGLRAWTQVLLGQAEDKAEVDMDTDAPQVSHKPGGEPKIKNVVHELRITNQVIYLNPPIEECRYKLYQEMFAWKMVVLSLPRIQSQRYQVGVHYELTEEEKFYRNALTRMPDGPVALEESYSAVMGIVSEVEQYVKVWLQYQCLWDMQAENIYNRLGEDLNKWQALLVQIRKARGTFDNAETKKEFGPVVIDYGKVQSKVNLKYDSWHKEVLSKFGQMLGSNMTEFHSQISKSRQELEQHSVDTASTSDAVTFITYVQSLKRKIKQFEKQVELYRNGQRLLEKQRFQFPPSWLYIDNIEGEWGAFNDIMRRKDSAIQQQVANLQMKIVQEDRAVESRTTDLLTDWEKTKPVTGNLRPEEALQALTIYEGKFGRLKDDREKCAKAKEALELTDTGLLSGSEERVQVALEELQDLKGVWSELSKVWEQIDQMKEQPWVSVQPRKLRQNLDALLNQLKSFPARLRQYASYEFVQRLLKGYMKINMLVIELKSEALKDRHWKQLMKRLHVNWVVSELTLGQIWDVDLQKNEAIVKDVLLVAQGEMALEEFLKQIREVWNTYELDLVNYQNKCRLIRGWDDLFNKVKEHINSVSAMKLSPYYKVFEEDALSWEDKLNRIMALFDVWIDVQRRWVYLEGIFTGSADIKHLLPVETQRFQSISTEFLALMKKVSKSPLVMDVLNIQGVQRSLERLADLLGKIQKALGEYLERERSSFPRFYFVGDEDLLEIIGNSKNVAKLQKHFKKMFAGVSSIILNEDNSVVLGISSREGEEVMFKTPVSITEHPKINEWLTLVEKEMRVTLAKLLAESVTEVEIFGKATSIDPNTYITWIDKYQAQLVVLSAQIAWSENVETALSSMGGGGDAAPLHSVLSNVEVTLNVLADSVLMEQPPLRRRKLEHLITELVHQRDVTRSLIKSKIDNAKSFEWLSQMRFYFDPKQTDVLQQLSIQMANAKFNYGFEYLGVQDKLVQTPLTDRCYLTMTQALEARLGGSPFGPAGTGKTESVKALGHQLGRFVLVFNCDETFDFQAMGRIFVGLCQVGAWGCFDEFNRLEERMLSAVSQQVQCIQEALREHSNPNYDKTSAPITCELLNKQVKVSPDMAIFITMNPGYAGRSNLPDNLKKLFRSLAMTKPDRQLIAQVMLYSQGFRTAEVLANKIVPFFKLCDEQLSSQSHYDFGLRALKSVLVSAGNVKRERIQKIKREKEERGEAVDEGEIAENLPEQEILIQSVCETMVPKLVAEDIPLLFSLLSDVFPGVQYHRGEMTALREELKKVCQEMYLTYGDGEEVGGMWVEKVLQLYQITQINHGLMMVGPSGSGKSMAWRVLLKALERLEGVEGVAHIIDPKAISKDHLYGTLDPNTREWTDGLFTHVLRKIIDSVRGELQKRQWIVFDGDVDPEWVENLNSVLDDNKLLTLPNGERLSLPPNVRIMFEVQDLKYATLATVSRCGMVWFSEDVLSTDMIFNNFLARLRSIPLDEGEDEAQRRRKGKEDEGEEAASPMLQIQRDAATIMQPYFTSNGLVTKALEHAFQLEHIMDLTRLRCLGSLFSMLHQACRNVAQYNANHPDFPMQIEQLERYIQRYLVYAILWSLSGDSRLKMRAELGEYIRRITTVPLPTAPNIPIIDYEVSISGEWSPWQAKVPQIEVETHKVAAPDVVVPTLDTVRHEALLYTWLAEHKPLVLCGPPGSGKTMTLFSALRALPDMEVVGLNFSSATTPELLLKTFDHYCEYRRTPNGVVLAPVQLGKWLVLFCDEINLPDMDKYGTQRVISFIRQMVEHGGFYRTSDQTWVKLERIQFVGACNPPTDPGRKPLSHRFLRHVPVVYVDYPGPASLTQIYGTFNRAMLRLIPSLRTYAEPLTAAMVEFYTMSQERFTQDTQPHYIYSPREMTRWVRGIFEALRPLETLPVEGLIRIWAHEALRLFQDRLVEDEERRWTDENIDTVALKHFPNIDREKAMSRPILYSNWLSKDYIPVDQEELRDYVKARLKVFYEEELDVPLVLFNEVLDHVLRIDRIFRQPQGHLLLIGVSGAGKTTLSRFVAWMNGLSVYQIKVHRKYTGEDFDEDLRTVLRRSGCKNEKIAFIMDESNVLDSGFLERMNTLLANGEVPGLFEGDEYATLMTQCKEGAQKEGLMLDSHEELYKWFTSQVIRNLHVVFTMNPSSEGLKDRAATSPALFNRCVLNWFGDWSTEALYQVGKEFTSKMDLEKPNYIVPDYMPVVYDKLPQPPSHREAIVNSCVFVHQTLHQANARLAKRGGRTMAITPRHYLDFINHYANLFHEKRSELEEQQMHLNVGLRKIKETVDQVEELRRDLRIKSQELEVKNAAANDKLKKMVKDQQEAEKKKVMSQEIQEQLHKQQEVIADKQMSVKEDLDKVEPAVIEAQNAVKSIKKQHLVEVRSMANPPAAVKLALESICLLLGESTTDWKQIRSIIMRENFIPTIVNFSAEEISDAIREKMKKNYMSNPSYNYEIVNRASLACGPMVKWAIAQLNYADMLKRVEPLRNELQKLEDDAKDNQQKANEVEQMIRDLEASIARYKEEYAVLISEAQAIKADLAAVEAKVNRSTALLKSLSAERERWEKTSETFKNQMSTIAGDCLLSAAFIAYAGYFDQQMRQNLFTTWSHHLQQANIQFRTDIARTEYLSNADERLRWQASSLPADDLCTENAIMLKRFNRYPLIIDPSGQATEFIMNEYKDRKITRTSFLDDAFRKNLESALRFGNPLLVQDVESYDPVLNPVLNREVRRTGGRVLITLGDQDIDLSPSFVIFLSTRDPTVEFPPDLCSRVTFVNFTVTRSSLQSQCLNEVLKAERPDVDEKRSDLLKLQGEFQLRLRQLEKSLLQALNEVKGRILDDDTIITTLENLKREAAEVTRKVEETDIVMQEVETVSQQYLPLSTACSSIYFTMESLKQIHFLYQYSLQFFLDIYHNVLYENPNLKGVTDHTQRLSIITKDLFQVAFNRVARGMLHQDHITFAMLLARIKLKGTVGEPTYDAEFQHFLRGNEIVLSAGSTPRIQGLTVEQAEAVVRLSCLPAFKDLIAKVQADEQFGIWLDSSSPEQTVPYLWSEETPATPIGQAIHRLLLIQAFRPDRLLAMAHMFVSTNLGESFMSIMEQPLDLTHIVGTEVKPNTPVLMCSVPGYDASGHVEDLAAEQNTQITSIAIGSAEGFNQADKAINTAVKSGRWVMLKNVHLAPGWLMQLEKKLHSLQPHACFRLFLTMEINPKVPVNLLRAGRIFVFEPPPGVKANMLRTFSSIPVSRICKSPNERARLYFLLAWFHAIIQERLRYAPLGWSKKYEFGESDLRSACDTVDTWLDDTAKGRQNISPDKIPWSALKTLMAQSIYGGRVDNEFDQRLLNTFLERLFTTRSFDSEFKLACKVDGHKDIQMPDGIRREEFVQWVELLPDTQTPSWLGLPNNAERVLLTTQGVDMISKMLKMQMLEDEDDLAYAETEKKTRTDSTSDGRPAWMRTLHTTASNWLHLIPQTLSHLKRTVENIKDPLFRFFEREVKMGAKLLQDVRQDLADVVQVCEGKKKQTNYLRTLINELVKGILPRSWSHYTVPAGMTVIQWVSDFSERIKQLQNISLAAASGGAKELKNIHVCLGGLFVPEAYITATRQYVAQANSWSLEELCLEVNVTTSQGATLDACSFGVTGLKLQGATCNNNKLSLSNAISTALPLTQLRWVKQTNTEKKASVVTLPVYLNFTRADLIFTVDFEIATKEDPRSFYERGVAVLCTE

Take IC2-BioID-3×FLAG (natural protein): the percent of the tagged subunit incorporated into the complex came out at 51%.
